Where a chain is given by its changes, count along the chain named.
Legend:
corin mutant K317E = molecular target: T1, corin mutant K317E (Homo sapiens, UniProt Q9Y5Q5, K317E); experiment: PCSK6-mediated corin activation in HEK293 cells, corin mutant K317E; format: cell-based; settings: Western, densitometry
T1 construct: expressed in transfected cells; host or cells: HEK293
T1 sequence (Q9Y5Q5 1-1042 K317E): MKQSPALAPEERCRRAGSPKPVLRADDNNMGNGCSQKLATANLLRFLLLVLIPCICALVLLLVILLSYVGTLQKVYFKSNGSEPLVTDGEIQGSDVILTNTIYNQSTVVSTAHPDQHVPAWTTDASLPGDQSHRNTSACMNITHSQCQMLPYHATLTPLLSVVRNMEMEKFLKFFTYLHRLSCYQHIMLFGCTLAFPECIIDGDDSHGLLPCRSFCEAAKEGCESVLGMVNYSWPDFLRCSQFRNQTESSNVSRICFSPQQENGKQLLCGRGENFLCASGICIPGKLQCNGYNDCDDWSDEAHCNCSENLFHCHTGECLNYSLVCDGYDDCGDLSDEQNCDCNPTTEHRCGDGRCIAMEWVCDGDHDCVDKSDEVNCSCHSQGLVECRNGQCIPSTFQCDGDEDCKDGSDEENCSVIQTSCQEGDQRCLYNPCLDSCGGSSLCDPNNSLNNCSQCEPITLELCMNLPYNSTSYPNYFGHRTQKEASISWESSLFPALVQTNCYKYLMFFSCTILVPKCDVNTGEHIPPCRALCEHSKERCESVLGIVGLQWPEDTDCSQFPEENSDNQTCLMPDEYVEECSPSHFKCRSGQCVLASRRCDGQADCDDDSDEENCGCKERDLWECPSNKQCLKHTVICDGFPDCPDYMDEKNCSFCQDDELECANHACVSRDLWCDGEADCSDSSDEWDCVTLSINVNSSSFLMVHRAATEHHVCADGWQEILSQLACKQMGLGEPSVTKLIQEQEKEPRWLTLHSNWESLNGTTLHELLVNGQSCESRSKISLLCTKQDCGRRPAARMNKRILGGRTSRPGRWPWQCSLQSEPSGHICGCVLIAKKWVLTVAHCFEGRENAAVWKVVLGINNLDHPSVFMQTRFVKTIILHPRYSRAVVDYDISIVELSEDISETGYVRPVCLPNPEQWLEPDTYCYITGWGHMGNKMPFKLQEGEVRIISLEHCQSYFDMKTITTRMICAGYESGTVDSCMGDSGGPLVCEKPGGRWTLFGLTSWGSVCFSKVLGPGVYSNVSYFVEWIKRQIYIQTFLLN
Description: (§1) Plasmids expressing human corin WT and mutants R801A, S985A, T555I, Q568P, T555I/Q568P, K317E, S472G and R539C were reported previously. Dong, N. et al., J Biol Chem 289, 17909-17916 (2014); Knappe et al., J Biol Chem 278, 52363-52370 (2003); Wu et al., J Biol Chem 277, 16900-16905. (2002). Plasmids expressing human PCSK1-9 were made by cloning respective cDNAs into pcNDA3.1 vector. Recombinant corin and PCSK proteins encoded by these plasmids contained a C-terminal V5 or flag tag for protein detection in Western blotting.
HEK293 and HL-1 cells were transfected with corin or PCSK6 expression plasmids. After 48-72 h, cells were lysed in a buffer containing 25 mM Tris-HCl, pH 7.4, 150 mM NaCl, 1 mM EDTA, 1% (v/v) NP-40, and 1% (v/v) protease inhibitor cocktail. Recombinant corin and PCSK6 proteins were immunoprecipitated with an anti-V5 or anti-flag antibody. Western blotting was carried out to analyze corin expression and activation or PCSK6 expression with or without reducing agents. Percentage of corin activation (corin-p vs. corin fragments) was quantified by densitometric analysis of Western blots.

recombinant human corin = molecular target: T2, recombinant human corin (Homo sapiens, UniProt Q9Y5Q5); experiment: PCSK1-9 plasmids transfected in HEK293 cells expressing recombinant human corin (Western analysis); format: cell-based; settings: plasmid transfected
T2 construct: expressed in transfected cells; host or cells: HEK293
T2 sequence (Q9Y5Q5 1-1042): T1 sequence (Q9Y5Q5 1-1042 K317E) with E317K
Description: The PCSK family has 9 members. PCSK1-9 plasmids were transfected in HEK293 cells expressing recombinant human corin. […] By RT-PCR, PCSK6 mRNA was detected in HEK293 and HL-1 cells and in mouse and human hearts where corin is normally expressed. Yan et al., J Biol Chem 274, 14926-14935 (1999). The results were consistent with previous reports of PCSK6 expression in atrial and ventricular cardiomyocytes. Beaubien et al., Cell Tissue Res 279, 539-549 (1995).
as §1
HEK293 and HL-1 cells were transfected with corin or PCSK6 expression plasmids. After 48-72 h, cells were lysed in a buffer containing 25 mM Tris-HCl, pH 7.4, 150 mM NaCl, 1 mM EDTA, 1% (v/v) NP-40, and 1% (v/v) protease inhibitor cocktail. […] Percentage of corin activation (corin-p vs. corin fragments) was quantified by densitometric analysis of Western blots.

B1: proprotein convertase subtilisin/kexin-6 (protein, listed as Homo sapiens)
chain: MPPRAPPAPGPRPPPRAAAATDTAAGAGGAGGAGGAGGPGFRPLAPRPWRWLLLLALPAACSAPPPRPVYTNHWAVQVLGGPAEADRVAAAHGYLNLGQIGNLEDYYHFYHSKTFKRSTLSSRGPHTFLRMDPQVKWLQQQEVKRRVKRQVRSDPQALYFNDPIWSNMWYLHCGDKNSRCRSEMNVQAAWKRGYTGKNVVVTILDDGIERNHPDLAPNYDSYASYDVNGNDYDPSPRYDASNENKHGTRCAGEVAASANNSYCIVGIAYNAKIGGIRMLDGDVTDVVEAKSLGIRPNYIDIYSASWGPDDDGKTVDGPGRLAKQAFEYGIKKGRQGLGSIFVWASGNGGREGDYCSCDGYTNSIYTISVSSATENGYKPWYLEECASTLATTYSSGAFYERKIVTTDLRQRCTDGHTGTSVSAPMVAGIIALALEANSQLTWRDVQHLLVKTSRPAHLKASDWKVNGAGHKVSHFYGFGLVDAEALVVEAKKWTAVPSQHMCVAASDKRPRSIPLVQVLRTTALTSACAEHSDQRVVYLEHVVVRTSISHPRRGDLQIYLVSPSGTKSQLLAKRLLDLSNEGFTNWEFMTVHCWGEKAEGQWTLEIQDLPSQVRNPEKQGKLKEWSLILYGTAEHPYHTFSAHQSRSRMLELSAPELEPPKAALSPSQVEVPEDEEDYTAQSTPGSANILQTSVCHPECGDKGCDGPNADQCLNCVHFSLGSVKTSRKCVSVCPLGYFGDTAARRCRRCHKGCETCSSRAATQCLSCRRGFYHHQEMNTCVTLCPAGFYADESQKNCLKCHPSCKKCVDEPEKCTVCKEGFSLARGSCIPDCEPGTYFDSELIRCGECHHTCGTCVGPGREECIHCAKNFHFHDWKCVPACGEGFYPEEMPGLPHKVCRRCDENCLSCAGSSRNCSRCKTGFTQLGTSCITNHTCSNADETFCEMVKSNRLCERKLFIQFCCRTCLLAG
modifications: C-terminal FLAG tag
reduction in PCSK6-mediated corin activation compared with WT corin (corin mutant K317E): 39% | corin activation on PCSK overexpression (loss of corin zymogen band) (recombinant human corin): enhanced corin activation
